± gives the uncertainty stated by the source.
Assay: amyloid nucleation score (Sup35N fusion, yeast selection) (log enrichment); library NNK2; higher = more nucleation; inactive = no reads after selection
Outline: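 Peptides of 20 random codons, each fused to Sup35N, were expressed in psi-negative yeast. Cells were induced with 100 μM copper sulfate for 24 hours and grown 7 days at 30°C on medium lacking adenine and uracil, and plasmid inserts before and after selection were Illumina-sequenced. Nucleation scores are DiMSum log enrichments of output over input reads, centred on the mode score of non-aggregating sequences, and sequences under 100 input reads were excluded.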

Row | Substance | amyloid nucleation score
1 | ASTSLMVN | 0.052 ± 0.46
2 | CQDSALALGDVFVPDKGVVR | 0.36 ± 0.8
3 | AVSVAVLRHLEVRRKVWS | 1.66 ± 0.15
4 | ACHRFYLMKSML | 1.28 ± 0.36
5 | QRVSRYNLLRARPGKIAEHF | inactive
6 | FTCDSSLYAES | -0.485 ± 0.41
7 | LLFSSSSLPIGTGGYDLTAG | -0.408 ± 1.1
8 | LDRYLG | 0.064 ± 0.3
9 | PAIISFQYLFGRRSELEKM | 5.572 ± 0.047
10 | NSGHYFKDKSWCQMRS | 0.615 ± 0.66
11 | WGNGLSFTAACLLVLLKRNS | 2.2 ± 0.16
12 | DYVCGGGFLTKDVSACGLYV | 0.685 ± 0.46
13 | FKKAMHKPKSWAFSEKGRTN | -1.27 ± 0.61
14 | SESDSTLRSTIDSRLCGS | -0.53 ± 0.55
15 | VYLRMSFYYGKRP | 4.12 ± 0.044
16 | VTVRRCSFFQVY | -0.196 ± 0.41
17 | IVLRFFGFMDHSSYRNLFKE | -0.375 ± 1.1
18 | EVRSALYAYEGYLRVFRSFR | 0.819 ± 0.46
19 | TVYSHEKGVQLWFLLIVALL | 0.27 ± 0.48
20 | MCHVKFIT | 3.18 ± 0.067
21 | SFFFMKSWSGRPPIQLGV | -0.113 ± 0.65
22 | LARCGPKLW | 3.43 ± 0.07
23 | DVCGD | -0.566 ± 0.48
24 | DIERQAVNRPVGRLGKTEDS | 0.242 ± 0.77
25 | PMVFNHG | -0.398 ± 1

Row | Substance | amyloid nucleation score
26 | VMCFEYYVYYDYDYTCTFNY | 0.842 ± 0.12
27 | LMLIVQDPCLSEINFKLDSG | 4.59 ± 0.11
28 | QFDAWAYMDRTPHGDSYRAA | 0.237 ± 0.65
29 | GKDGKLTSMAHSYHDYVMRR | 0.129 ± 0.26
30 | SVLTIRLKMQGHWLPGAAGC | 3.66 ± 0.15
31 | MTFNVFRNQALRPNCCKPNG | 3.09 ± 0.18
32 | LCEEICLDFFMVRMFKHASY | 1.63 ± 0.11
33 | HILICFWRVQVLKSACLYWT | 1.74 ± 0.11
34 | LDVVWSRVVRCRCVSWGNSL | 0.054 ± 0.65
35 | INLISSYHFGELTCATSYWR | 4.77 ± 0.09
36 | NEFIEVALSLYRVNCQRNFI | -1.5 ± 0.53
37 | ILIKYVLAPWSSSLTVWGKA | -0.365 ± 0.3
38 | SRFLFCVPHVDCWLLTWNLS | 6.68 ± 0.073
39 | FFYALGYRISDAMEIRRVGS | 2.35 ± 0.059
40 | GKEIRNNITMCGYLMQNICD | 2.85 ± 0.17
41 | DFSIQWCTSSINYVLYFAI | -1.89 ± 0.44
42 | SMQFFFRS | 6.51 ± 0.072
43 | AMDASR | 1.7 ± 0.12
44 | ARSDLNMRTFFVWASLFVLS | 4.43 ± 0.056
45 | RMCMR | 0.017 ± 0.34
46 | GYRLGHRRGGFGVLNGFYGD | -0.157 ± 0.79
47 | DRINSFLFRETVWQNNWVIS | -0.263 ± 0.79
48 | DGTYLQNRRDFNNGSARRGW | 0.984 ± 0.57
49 | DSSSCYMYLCTGNYPDNFNF | 4.5 ± 0.084
50 | SCCNL | -0.11 ± 0.19

Row | Substance | amyloid nucleation score
51 | GGTVEARSKGILSLSGW | inactive
52 | SSSREALCRKHDGVL | 0.905 ± 0.45
53 | SVLSFMRYLCGWQA | 6.513 ± 0.053
54 | TYMRGSLSEIGGTLL | 1.06 ± 0.19
55 | ILSTVTDSSCNIACSCNNN | 8.363 ± 0.047
56 | VYKFEKESLLTLSHIHKVAS | -0.012 ± 1.1
57 | RINQLLTPLTWQERGP | 3.38 ± 0.06
58 | TYPRDYVVRSEI | 0.74 ± 0.43
59 | NLFFVGPCELSRWLGFSNLQ | 5.874 ± 0.032
60 | VRIIETGRC | 0.136 ± 0.39
61 | MVYELRRFRCLFITVSGVDS | inactive
62 | SLNILDCFTCGYMTSDISVA | -0.674 ± 0.32
63 | YRLGGWEVNWRLDFYHRRGM | 1.21 ± 0.32
64 | TVSRIMLGNGKYFKHVL | 2.3 ± 0.064
65 | FYLYFIYGSVCSLSRFNPIR | 1.53 ± 0.1
66 | DASMQF | 0.797 ± 0.57
67 | FHHSHANSNVSRGIDIFGAV | -0.454 ± 0.32
68 | PMCYSVSSNLWVTTLQWGYL | 2.56 ± 0.14
69 | GMTVNYRRMVQNQRMFGPGI | -0.42 ± 0.37
70 | RMEVEFFVPW | 2.9 ± 0.11
71 | FLYLALCKI | 2.49 ± 0.14
72 | LRFFHQSL | inactive
73 | VMTYVEQVLGNVSVLIAIIT | 0.015 ± 0.33
74 | VRMEVIFYC | 2.54 ± 0.2
75 | VKLIETSLLSFLIE | -0.33 ± 0.76

Row | Substance | amyloid nucleation score
76 | YTVFSTESPCWISQSKLRLA | -0.825 ± 0.78
77 | RISIPS | inactive
78 | IAAMTFFMMCLTYCVLWIAW | 1.71 ± 0.31
79 | LYINGEISVVIRIWFGPLVV | 0.517 ± 0.53
80 | NWGNDSMRRPCCG | 2 ± 0.088
81 | FLMEVSLTLSFLERSNVLKG | 3.8 ± 0.067
82 | LVFFSLDFYYRGWHRDWIAG | -1.26 ± 0.64
83 | TVWCWVDRTMGLEWTYLTA | 1.1 ± 0.23
84 | LSVMLTYYGYMPNLYIVVRE | -0.713 ± 0.49
85 | EVAEQH | 0.426 ± 0.16
86 | CMSVGGGLHG | 3.13 ± 0.071
87 | TCLVCVTEVAHDSHLNRVSH | 7.08 ± 0.082
88 | IENRLWIWSLH | 0.673 ± 0.32
89 | KFMCSELSNFCINCILRLVV | -0.19 ± 1.1
90 | HCLGVFARFWIWVGPDGLVI | -1.2 ± 0.78
91 | MVSGRPTVYKTSSLQTASAN | -0.14 ± 0.65
92 | NTNVCSSRRNPVCMMVEVVR | inactive
93 | FFLSRFLV | -0.27 ± 0.79
94 | NTHGR | 4.61 ± 0.073
95 | GIGSQMWFT | 3.41 ± 0.053
96 | GSCVIM | 1.36 ± 0.67
97 | TFEYCSLYVGCNQGNLVITT | 6.575 ± 0.041
98 | SLYLRSRSRISFMGVGQKEL | 3.28 ± 0.11
99 | VAFNCNIEIISPAGDGETFV | -0.489 ± 0.27
100 | LWNSIDNS | inactive

Row | Substance | amyloid nucleation score
101 | KRGKMHYCKFAHAAITVTQL | -0.515 ± 0.43
102 | FFVDMSYPGSWNICYLTRFC | inactive
103 | SWRENFGWGICCSTVWPRCR | 1.86 ± 0.21
104 | VVMNLMEFMVRVSVLDNAEG | 4.47 ± 0.075
105 | IADIVQGSGVAT | -0.178 ± 0.26
106 | FWGGDLRACSCGQGIEFAGR | 3.7 ± 0.14
107 | LSWWIHVTVWFPFQVKTGYL | -0.904 ± 0.78
108 | SMRDEVYIRFFMNRILSVRS | -0.803 ± 1
109 | PLLFIMANFCLVVLHVSFYN | -0.639 ± 1
110 | VGPFSDH | -0.472 ± 0.79
111 | LFIDDVPVDSITYGIWARGC | -1.5 ± 1.1
112 | PDVPIFCPYAAAMKVAVCYR | -0.526 ± 0.76
113 | LLRSEVGDLILPCVLERCRP | 1.13 ± 0.36
114 | VINVKEYVGYIVSKVDKGGP | 4.24 ± 0.049
115 | GCLLLPKGASHKIDYCGSDV | 0.396 ± 0.35
116 | SPRLAGVWVH | -0.669 ± 0.63
117 | GTRGVVLISMSWRVDLHWKP | inactive
118 | RCVTERFPDM | 0.408 ± 0.5
119 | NRMEYV | 1.02 ± 0.23
120 | LCYWCTCR | 0.141 ± 0.41
121 | VALRWTIRQWFSDVYPWSWY | 0.802 ± 0.45
122 | IPLVKCRSCRRCNN | 0.412 ± 0.5
123 | MGARSIRDRSSVGK | -0.464 ± 1.1
124 | QVWSFDGCS | -0.15 ± 0.4
125 | VFQQFNS | 0.244 ± 0.62

Row | Substance | amyloid nucleation score
126 | GSQGFPRRFSPSMPM | 0.886 ± 0.8
127 | DGELVVWFMVMSWWNIKDSK | -0.446 ± 1
128 | IMPNLAPGCRIRAIVND | -0.006 ± 0.29
129 | FMWVNS | inactive
130 | VEDDDN | -0.2 ± 0.63
131 | VARRGALNVRHFFPGKREV | 0.608 ± 0.47
132 | GAPSHFCEFCSYSAAKEEYE | inactive
133 | LGTSRGNDVENRAYSRWVKV | 0.524 ± 0.81
134 | PCLMEGFTS | -0.849 ± 0.64
135 | CVICDNYFILEAVF | -0.771 ± 1.1
136 | MCYCLYNVGPCGDGH | 1.23 ± 0.28
137 | HWLTKISGTTPELYPRERVV | 0.071 ± 0.25
138 | YLTLTYPLLCLALNNLSVVL | 2.38 ± 0.15
139 | VWLYKSLIINFDSKWRLS | 6.268 ± 0.034
140 | GFSTRYVFTSLYLKYFNRVY | -0.476 ± 0.64
141 | KSEVWSYLI | 4.51 ± 0.061
142 | FFTQGSCDTILRGLAFFTPR | -0.26 ± 1
143 | ALKFHGSNDSRFLI | -0.756 ± 1
144 | GTGIHLLLLVGSGDSSREMM | -1.08 ± 0.36
145 | KPHRIENGSTREDEEG | 0.747 ± 0.31
146 | YVRRVASGAFCMKFRSTIRR | 1.98 ± 0.084
147 | FFSDVSLVQYHLTLRFLMAY | -1.69 ± 0.62
148 | VDYKSFRNYTFMDHYCSPYN | 1.08 ± 0.18
149 | YSLMCQFHSSPISFFLCWLP | 8.157 ± 0.071
150 | CVMTRRSTKCFSMSLLSIWL | 6.496 ± 0.056

Row | Substance | amyloid nucleation score
151 | YKLFWKWGFSGITDDSTLMR | inactive
152 | MIMHNVANDWTVFYFLCRVV | -0.723 ± 0.55
153 | IMMLEVDDLYGIEQSTFWK | -0.33 ± 0.64
154 | SSSVDRTVHPLCYGFSLRRD | -0.168 ± 0.28
155 | CIAYRDSTAYHNMTRGTAMV | 3.72 ± 0.043
156 | SMNVRTKLDWSTTRVDSGLR | 0.662 ± 0.21
157 | LSGVFNSFCLRGNGREWVAL | -0.034 ± 0.32
158 | KSCGRLAAEYSPPRMACGHD | 1.18 ± 0.41
159 | SMLGKRIFYRCSRLMHNF | -0.175 ± 0.27
160 | MDIFCYTGRPTSAKRAS | -1.05 ± 0.64
161 | DWFCVHKV | 0.058 ± 1
162 | VLRGSFKGFFYRWIKCGFEW | -1.24 ± 0.64
163 | KDDSQLVLRDRPSRLWRLKE | 0.804 ± 0.53
164 | RDISIMHRRRMNGLFNY | inactive
165 | TSSSYTSTFDRGLMNLRTCL | -0.039 ± 0.25
166 | KNKQRYSPIITLLVTKSVAF | 2.67 ± 0.056
167 | LNYNYTQDR | -0.751 ± 1.1
168 | FTRSWFLYTT | 3.85 ± 0.095
169 | DYLIAIQLYDFYVHGLIKYR | -0.853 ± 0.78
170 | FFVKTLFEGSLDVSSNSTFF | -0.304 ± 1.1
171 | RVYLFLELIRALSFRTNHCG | -0.245 ± 0.76
172 | DKYNTVRLCP | 0.987 ± 0.5
173 | YLMVISEQIGDMCTISS | -1.36 ± 0.76
